Measurements reported in IntAct's records for PubMed 21145460.

B1: Regulator of nonsense transcripts 1 (Homo sapiens), Q92900-2 (parent)
chain: MSVEAYGPSSQTLTFLDTEEAELLGADTQGSEFEFTDFTLPSQTQTPPGGPGGPGGGGAGGPGGAGAGAAAGQLDAQVGPEGILQNGAVDDSVAKTSQLLAELNFEEDEEDTYYTKDLPIHACSYCGIHDPACVVYCNTSKKWFCNGRGNTSGSHIVNHLVRAKCKEVTLHKDGPLGETVLECYNCGCRNVFLLGFIPAKADSVVVLLCRQPCASQSSLKDINWDSSQWQPLIQDRCFLSWLVKIPSEQEQLRARQITAQQINKLEELWKENPSATLEDLEKPGVDEEPQHVLLRYEDAYQYQNIFGPLVKLEADYDKKLKESQTQDNITVRWDLGLNKKRIAYFTLPKTDSDMRLMQGDEICLRYKGDLAPLWKGIGHVIKVPDNYGDEIAIELRSSVGAPVEVTHNFQVDFVWKSTSFDRMQSALKTFAVDETSVSGYIYHKLLGHEVEDVIIKCQLPKRFTAQGLPDLNHSQVYAVKTVLQRPLSLIQGPPGTGKTVTSATIVYHLARQGNGPVLVCAPSNIAVDQLTEKIHQTGLKVVRLCAKSREAIDSPVSFLALHNQIRNMDSMPELQKLQQLKDETGELSSADEKRYRALKRTAERELLMNADVICCTCVGAGDPRLAKMQFRSILIDESTQATEPECMVPVVLGAKQLILVGDHCQLGPVVMCKKAAKAGLSQSLFERLVVLGIRPIRLQVQYRMHPALSAFPSNIFYEGSLQNGVTAADRVKKGFDFQWPQPDKPMFFYVTQGQEEIASSGTSYLNRTEAANVEKITTKLLKAGAKPDQIGIITPYEGQRSYLVQYMQFSGSLHTKLYQEVEIASVDAFQGREKDFIILSCVRANEHQGIGFLNDPRRLNVALTRARYGVIIVGNPKALSKQPLWNHLLNYYKEQKVLVEGPLNNLRESLMQFSKPRKLVNTINPGARFMTTAMYDAREAIIPGSVYDRSSQGRPSSMYFQTHDQIGMISAGPSHVAAMNIPIPFNLVMPPMPPPGYFGQANGPAAGRGTPKGKTGRGGRQKNRFGLPGPSQTNLPNSQASQDVASQPFSQGALTQGYISMSQPSQMSQPGLSQPELSQDSYLGDEFKSQIDVALSQDSTYQGERAYQHGGVTGLSQY
B2: Regulator of nonsense transcripts 1 (Homo sapiens), Q92900-2 (parent)
chain: B1 chain
partner: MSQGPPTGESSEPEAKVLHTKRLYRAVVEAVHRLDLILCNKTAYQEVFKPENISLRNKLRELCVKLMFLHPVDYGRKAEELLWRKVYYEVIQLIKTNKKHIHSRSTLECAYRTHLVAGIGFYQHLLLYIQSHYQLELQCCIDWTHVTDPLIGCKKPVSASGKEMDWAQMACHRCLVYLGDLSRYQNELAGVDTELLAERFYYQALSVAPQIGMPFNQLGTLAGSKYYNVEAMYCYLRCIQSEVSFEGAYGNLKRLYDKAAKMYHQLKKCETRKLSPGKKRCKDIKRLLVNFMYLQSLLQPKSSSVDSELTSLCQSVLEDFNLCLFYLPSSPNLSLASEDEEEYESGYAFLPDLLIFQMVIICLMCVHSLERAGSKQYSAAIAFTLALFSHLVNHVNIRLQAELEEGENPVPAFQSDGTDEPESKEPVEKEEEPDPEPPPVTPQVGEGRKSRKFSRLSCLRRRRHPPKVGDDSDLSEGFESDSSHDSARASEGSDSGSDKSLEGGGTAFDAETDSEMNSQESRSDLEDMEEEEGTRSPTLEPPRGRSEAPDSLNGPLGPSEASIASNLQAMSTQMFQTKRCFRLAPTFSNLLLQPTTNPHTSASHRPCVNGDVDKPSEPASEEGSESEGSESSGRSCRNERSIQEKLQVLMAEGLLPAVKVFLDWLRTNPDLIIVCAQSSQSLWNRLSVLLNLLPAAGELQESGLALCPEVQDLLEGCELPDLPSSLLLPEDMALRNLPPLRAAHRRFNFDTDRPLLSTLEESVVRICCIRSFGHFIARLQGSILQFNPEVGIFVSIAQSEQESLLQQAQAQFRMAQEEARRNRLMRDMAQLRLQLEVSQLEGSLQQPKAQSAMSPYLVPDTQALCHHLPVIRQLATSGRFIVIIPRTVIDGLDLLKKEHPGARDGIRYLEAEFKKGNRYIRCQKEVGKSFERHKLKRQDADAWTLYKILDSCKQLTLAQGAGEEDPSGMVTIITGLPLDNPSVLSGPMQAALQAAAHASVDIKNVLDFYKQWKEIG

Variants of: B1
Conditions: with est1a_human SMG6, Q86US8
Chain of est1a_human SMG6, Q86US8 (Q86US8 whole entry): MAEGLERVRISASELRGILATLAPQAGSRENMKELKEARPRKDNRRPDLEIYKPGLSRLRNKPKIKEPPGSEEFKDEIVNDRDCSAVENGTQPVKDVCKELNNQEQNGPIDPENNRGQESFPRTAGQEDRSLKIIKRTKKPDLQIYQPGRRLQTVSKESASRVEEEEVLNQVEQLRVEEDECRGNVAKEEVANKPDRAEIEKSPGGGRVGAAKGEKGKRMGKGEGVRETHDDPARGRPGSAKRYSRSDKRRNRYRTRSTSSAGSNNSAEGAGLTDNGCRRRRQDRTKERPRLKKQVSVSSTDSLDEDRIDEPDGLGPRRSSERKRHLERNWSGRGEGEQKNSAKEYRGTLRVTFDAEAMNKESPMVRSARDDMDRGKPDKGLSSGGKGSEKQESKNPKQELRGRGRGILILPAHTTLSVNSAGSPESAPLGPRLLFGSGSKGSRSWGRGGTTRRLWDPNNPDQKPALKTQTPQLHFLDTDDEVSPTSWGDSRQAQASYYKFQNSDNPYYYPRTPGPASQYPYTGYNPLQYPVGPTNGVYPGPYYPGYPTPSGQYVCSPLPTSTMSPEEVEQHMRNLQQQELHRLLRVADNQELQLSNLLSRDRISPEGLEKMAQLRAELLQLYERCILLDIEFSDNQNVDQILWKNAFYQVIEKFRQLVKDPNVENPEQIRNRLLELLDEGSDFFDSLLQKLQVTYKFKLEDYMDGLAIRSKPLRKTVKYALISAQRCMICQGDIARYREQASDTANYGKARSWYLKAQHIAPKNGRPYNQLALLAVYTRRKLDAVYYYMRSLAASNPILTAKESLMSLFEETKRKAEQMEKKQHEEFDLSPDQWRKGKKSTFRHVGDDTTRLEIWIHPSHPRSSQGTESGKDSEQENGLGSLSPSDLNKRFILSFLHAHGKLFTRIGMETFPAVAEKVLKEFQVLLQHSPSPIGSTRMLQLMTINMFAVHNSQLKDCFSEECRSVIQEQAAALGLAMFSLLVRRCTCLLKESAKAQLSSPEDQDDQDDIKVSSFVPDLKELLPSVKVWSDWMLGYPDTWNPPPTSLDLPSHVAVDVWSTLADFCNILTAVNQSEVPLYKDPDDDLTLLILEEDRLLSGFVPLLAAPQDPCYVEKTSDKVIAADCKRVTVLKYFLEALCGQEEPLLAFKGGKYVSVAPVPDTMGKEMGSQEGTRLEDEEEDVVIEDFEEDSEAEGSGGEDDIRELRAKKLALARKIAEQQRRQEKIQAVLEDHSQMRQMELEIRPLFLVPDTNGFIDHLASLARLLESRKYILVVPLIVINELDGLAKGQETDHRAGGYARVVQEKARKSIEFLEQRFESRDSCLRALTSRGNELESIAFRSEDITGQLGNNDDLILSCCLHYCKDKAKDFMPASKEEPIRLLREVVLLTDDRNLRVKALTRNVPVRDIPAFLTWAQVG

Row | effect of a mutation on the interaction | Variant
1 | increasing interaction | K498A
2 | increasing interaction | D636A;E637A

Variants of: B2
Conditions: with smg5_human SMG5, Q9UPR3

Row | effect of a mutation on the interaction | Variant
3 | increasing interaction | D636A;E637A
4 | increasing interaction | K498A
